Measured values published in publication PMC8767022, “Mechanism and Structural Insights Into a Novel Esterase, E53, Isolated From Erythrobacter longus” (Frontiers in Microbiology, 2022).

How the values were obtained:
E53 [1] = target: T1, E53 (Erythrobacter longus, UniProt A0A074MDU6); assay: X-ray crystal structure, substrate soak; format: binding; conditions: pH 6.5 crystals; active site
T1 construct: gene EH31_02760; full length, 314 residues; N-terminal His6-SUMO tag (pSMT3) removed with Ulp1; E. coli BL21(DE3); monomer

E53 [2] = target: T2, E53 (Erythrobacter longus, UniProt A0A074MDU6, S285G); assay: X-ray crystal structure, substrate soak; format: binding; conditions: pH 6.5 crystals; active site
T2 construct: gene EH31_02760; full length, 314 residues; N-terminal His6-SUMO tag (pSMT3) removed with Ulp1; E. coli BL21(DE3); monomer
T2 sequence (A0A074MDU6 entry or part of it S285G): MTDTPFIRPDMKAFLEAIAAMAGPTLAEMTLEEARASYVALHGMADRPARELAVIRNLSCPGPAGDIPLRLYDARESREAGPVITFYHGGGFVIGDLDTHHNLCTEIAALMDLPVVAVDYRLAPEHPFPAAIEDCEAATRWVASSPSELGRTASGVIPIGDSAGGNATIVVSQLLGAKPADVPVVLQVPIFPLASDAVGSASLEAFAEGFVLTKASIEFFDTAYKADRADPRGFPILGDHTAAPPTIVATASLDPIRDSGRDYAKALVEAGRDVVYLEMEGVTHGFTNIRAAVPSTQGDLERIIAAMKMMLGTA

E53 [3] = target: T3, E53 (Erythrobacter longus, UniProt A0A074MDU6, I256L); assay: X-ray crystal structure, substrate soak; format: binding; conditions: pH 6.5 crystals; active site
T3 construct: gene EH31_02760; full length, 314 residues; N-terminal His6-SUMO tag (pSMT3) removed with Ulp1; E. coli BL21(DE3); monomer

purified protein = substrate: CCCC(=O)Oc1ccc([N+](=O)[O-])cc1; assay: purified protein; format: biochemical, Erythrobacter longus; conditions: Tris-HCl pH 9.0 (also pH 7.0), 40 °C, 0.05-4.00 mM substrate

| Molecule | Km (purified protein) [µM] | other results |
| --- | --- | --- |
| CCCCCC(=O)Oc1ccc([N+](=O)[O-])cc1 [C6, p-NP hexanoate] |  | X-ray crystal structure, substrate soak (E53 [1]): observed in the crystal structures of E53, I256L, and S285G; X-ray crystal structure, substrate soak (E53 [2]): observed in the crystal structures of E53, I256L, and S285G; X-ray crystal structure, substrate soak (E53 [3]): observed in the crystal structures of E53, I256L, and S285G |
| E53 (Erythrobacter longus; F191Y) (protein, full length, 314 residues; N-terminal His6-SUMO tag (pSMT3) removed with Ulp1; E. coli BL21(DE3); monomer) MTDTPFIRPDMKAFLEAIAAMAGPTLAEMTLEEARASYVALHGMADRPARELAVIRNLSCPGPAGDIPLRLYDARESREAGPVITFYHGGGFVIGDLDTHHNLCTEIAALMDLPVVAVDYRLAPEHPFPAAIEDCEAATRWVASSPSELGRTASGVIPIGDSAGGNATIVVSQLLGAKPADVPVVLQVPIYPLASDAVGSASLEAFAEGFVLTKASIEFFDTAYKADRADPRGFPILGDHTAAPPTIVATASLDPIRDSGRDYAKALVEAGRDVVYLEMEGVTHSFTNIRAAVPSTQGDLERIIAAMKMMLGTA | 210 ± 20 |  |
| E53 (Erythrobacter longus; V211A) (protein, full length, 314 residues; N-terminal His6-SUMO tag (pSMT3) removed with Ulp1; E. coli BL21(DE3); monomer) MTDTPFIRPDMKAFLEAIAAMAGPTLAEMTLEEARASYVALHGMADRPARELAVIRNLSCPGPAGDIPLRLYDARESREAGPVITFYHGGGFVIGDLDTHHNLCTEIAALMDLPVVAVDYRLAPEHPFPAAIEDCEAATRWVASSPSELGRTASGVIPIGDSAGGNATIVVSQLLGAKPADVPVVLQVPIFPLASDAVGSASLEAFAEGFALTKASIEFFDTAYKADRADPRGFPILGDHTAAPPTIVATASLDPIRDSGRDYAKALVEAGRDVVYLEMEGVTHSFTNIRAAVPSTQGDLERIIAAMKMMLGTA | 520 ± 30 |  |
| E53 (Erythrobacter longus; S216A) (protein, full length, 314 residues; N-terminal His6-SUMO tag (pSMT3) removed with Ulp1; E. coli BL21(DE3); monomer) MTDTPFIRPDMKAFLEAIAAMAGPTLAEMTLEEARASYVALHGMADRPARELAVIRNLSCPGPAGDIPLRLYDARESREAGPVITFYHGGGFVIGDLDTHHNLCTEIAALMDLPVVAVDYRLAPEHPFPAAIEDCEAATRWVASSPSELGRTASGVIPIGDSAGGNATIVVSQLLGAKPADVPVVLQVPIFPLASDAVGSASLEAFAEGFVLTKAAIEFFDTAYKADRADPRGFPILGDHTAAPPTIVATASLDPIRDSGRDYAKALVEAGRDVVYLEMEGVTHSFTNIRAAVPSTQGDLERIIAAMKMMLGTA | 420 ± 30 |  |
| E53 (Erythrobacter longus; I256L) (protein, full length, 314 residues; N-terminal His6-SUMO tag (pSMT3) removed with Ulp1; E. coli BL21(DE3); monomer) MTDTPFIRPDMKAFLEAIAAMAGPTLAEMTLEEARASYVALHGMADRPARELAVIRNLSCPGPAGDIPLRLYDARESREAGPVITFYHGGGFVIGDLDTHHNLCTEIAALMDLPVVAVDYRLAPEHPFPAAIEDCEAATRWVASSPSELGRTASGVIPIGDSAGGNATIVVSQLLGAKPADVPVVLQVPIFPLASDAVGSASLEAFAEGFVLTKASIEFFDTAYKADRADPRGFPILGDHTAAPPTIVATASLDPLRDSGRDYAKALVEAGRDVVYLEMEGVTHSFTNIRAAVPSTQGDLERIIAAMKMMLGTA | 230 ± 20 |  |
| E53 (Erythrobacter longus) (protein, full length, 314 residues; N-terminal His6-SUMO tag (pSMT3) removed with Ulp1; E. coli BL21(DE3); monomer) MTDTPFIRPDMKAFLEAIAAMAGPTLAEMTLEEARASYVALHGMADRPARELAVIRNLSCPGPAGDIPLRLYDARESREAGPVITFYHGGGFVIGDLDTHHNLCTEIAALMDLPVVAVDYRLAPEHPFPAAIEDCEAATRWVASSPSELGRTASGVIPIGDSAGGNATIVVSQLLGAKPADVPVVLQVPIFPLASDAVGSASLEAFAEGFVLTKASIEFFDTAYKADRADPRGFPILGDHTAAPPTIVATASLDPIRDSGRDYAKALVEAGRDVVYLEMEGVTHSFTNIRAAVPSTQGDLERIIAAMKMMLGTA | 330 ± 30 |  |
| E53 (Erythrobacter longus; N166A) (protein, full length, 314 residues; N-terminal His6-SUMO tag (pSMT3) removed with Ulp1; E. coli BL21(DE3); monomer) MTDTPFIRPDMKAFLEAIAAMAGPTLAEMTLEEARASYVALHGMADRPARELAVIRNLSCPGPAGDIPLRLYDARESREAGPVITFYHGGGFVIGDLDTHHNLCTEIAALMDLPVVAVDYRLAPEHPFPAAIEDCEAATRWVASSPSELGRTASGVIPIGDSAGGAATIVVSQLLGAKPADVPVVLQVPIFPLASDAVGSASLEAFAEGFVLTKASIEFFDTAYKADRADPRGFPILGDHTAAPPTIVATASLDPIRDSGRDYAKALVEAGRDVVYLEMEGVTHSFTNIRAAVPSTQGDLERIIAAMKMMLGTA | 460 ± 40 |  |
| E53 (Erythrobacter longus; A167L) (protein, full length, 314 residues; N-terminal His6-SUMO tag (pSMT3) removed with Ulp1; E. coli BL21(DE3); monomer) MTDTPFIRPDMKAFLEAIAAMAGPTLAEMTLEEARASYVALHGMADRPARELAVIRNLSCPGPAGDIPLRLYDARESREAGPVITFYHGGGFVIGDLDTHHNLCTEIAALMDLPVVAVDYRLAPEHPFPAAIEDCEAATRWVASSPSELGRTASGVIPIGDSAGGNLTIVVSQLLGAKPADVPVVLQVPIFPLASDAVGSASLEAFAEGFVLTKASIEFFDTAYKADRADPRGFPILGDHTAAPPTIVATASLDPIRDSGRDYAKALVEAGRDVVYLEMEGVTHSFTNIRAAVPSTQGDLERIIAAMKMMLGTA | 150 ± 10 |  |
